The text below walks through data of publication PMC4682114.

The target in series [1] is Histone H1.0 (human) (UniProt P07305). Nature of the series: FRET. The settings on record: FRET/PIFE/EMSA: 5 nM nucleosomes, 10 mM Tris-HCl pH 8.0, 130 mM NaCl, 10% glycerol, 0.005% Tween20, 10 min at 20 C, EMSA on 4% polyacrylamide, 0.3x TTE.
The target is the same in series [2]. Nature of the series: PIFE. The settings on record: AmC6dT at position 43; unlabelled human octamer; FRET/PIFE/EMSA: 5 nM nucleosomes, 10 mM Tris-HCl pH 8.0, 130 mM NaCl, 10% glycerol, 0.005% Tween20, 10 min at 20 C; EMSA on 4% polyacrylamide, 0.3x TTE. For orientation: In EMSA bound probe runs differently from free probe, usually more slowly.
Series [3] addresses Histone H1.2 (human) (UniProt P16403). Nature of the series: FRET. The settings on record: AmC6dT at position 43; human octamer H2A(K119C), H2B, H3(C110A), H4; FRET/PIFE/EMSA: 5 nM nucleosomes, 10 mM Tris-HCl pH 8.0, 130 mM NaCl, 10% glycerol, 0.005% Tween20, 10 min at 20 C; EMSA on 4% polyacrylamide, 0.3x TTE.
For series [4], the target named is Histone H1.x (human) (UniProt Q92522). Briefly: FRET. The settings on record: AmC6dT at position 43; human octamer H2A(K119C), H2B, H3(C110A), H4; FRET/PIFE/EMSA: 5 nM nucleosomes, 10 mM Tris-HCl pH 8.0, 130 mM NaCl, 10% glycerol, 0.005% Tween20, 10 min at 20 C; EMSA on 4% polyacrylamide, 0.3x TTE.
Series [5] has as its target Cy3 only labelled unmodified nucleosome (Cy3-L DNA, unlabelled histone octamer) (human) (UniProt P0C0S8). Briefly: other fluorescence titration; PIFE (protein-induced fluorescence enhancement) of Cy3 on the linker DNA of Cy3 only nucleosomes; 5 nM nucleosomes, 0-300 nM H1 and/or 0-1,000 nM Gal4, 10 mM Tris-HCl pH 8.0, 130 mM NaCl, 10% glycerol, 0.005% TWEEN20, 10 min at 20 C; Hill curve, S1/2.

Series [6] has as its target Cy3-Cy5 labelled unmodified nucleosome (Cy3-L DNA, Cy5 on H2A K119C) (human) (UniProt P0C0S8). Nature of the series: other fluorescence titration; FRET efficiency between Cy3 on the DNA and Cy5 on the histone octamer (reports DNA wrapping) against H1 concentration; 5 nM nucleosomes, 0-300 nM H1, 10 mM Tris-HCl pH 8.0, 130 mM NaCl, 10% glycerol, 0.005% TWEEN20, 10 min at 20 C; Hill curve, S1/2; points of aggregated nucleosomes excluded.

Series [7] addresses Cy3-Cy5 labelled H3K122ac nucleosome (Cy3-L DNA) (UniProt P0C0S8). The description is as above.
Series [8] deals with Cy3-Cy5 labelled H3K56ac nucleosome (Cy3-L DNA) (UniProt P0C0S8). The series is described as above.
Series [9] deals with Cy3-Cy5 labelled H3K56Q nucleosome (Cy3-L DNA) (human) (UniProt P0C0S8). Described as above.

As to “AAGCTTGTCGACGAATTCAGATATAAGGAGGACACTGGGACATGCATCGGCTGGAGACCGGAGGGCTGCCCTCCGGTCAATTGGTCGTAGACAGCTCTAGCACCGCTTAAACGCACGTACGCGCTGTCCCCCGCGTTTTAACCGCCAAGGGGATTACTCCCTAGTCTCCAGGCACGTGTCAGATATATACATCCTGT (double strand) [Linker-L nucleosome]”, the K half in series [1] (AmC6dT at position 43, human octamer) came to 12 nM.

Substance “AAGCTTGTCGACGAATTCAGATATAAGGAGGACACTGGGACATGCATCGGCTGGAGACCGGAGGGCTGCCCTCCGGTCAATTGGTCGTAGACAGCTCTAGCACCGCTTAAACGCACGTACGCGCTGTCCCCCGCGTTTTAACCGCCAAGGGGATTACTCCCTAGTCTCCAGGCACGTGTCAGATATATACATCCTGTATAATGCATAGGGCAGTGAGTTGACGCTACAATCACGAATTCTGGATCCGATACGTAACGCGTCTGCAGCATGCG (double strand) [Cy3-L nucleosome, unmodified, Cy3 only]” displayed a K half in series [2] of 13 nM.

Take “AAGCTTGTCGACGAATTCAGATATAAGGAGGACACTGGGACATGCATCGGCTGGAGACCGGAGGGCTGCCCTCCGGTCAATTGGTCGTAGACAGCTCTAGCACCGCTTAAACGCACGTACGCGCTGTCCCCCGCGTTTTAACCGCCAAGGGGATTACTCCCTAGTCTCCAGGCACGTGTCAGATATATACATCCTGTATAATGCATAGGGCAGTGAGTTGACGCTACAATCACGAATTCTGGATCCGATACGTAACGCGTCTGCAGCATGCG (double strand) [Cy3-L nucleosome, unmodified, Cy5-H2A(K119C)]”: the K half was determined as 9 nM in series [1] (AmC6dT at position 43, human octamer H2A(K119C), H2B, H3(C110A), H4); 6 nM in series [3]; 13 nM in series [4].

In the case of “CTGGAGACCGGAGGGCTGCCCTCCGGTCAATTGGTCGTAGACAGCTCTAGCACCGCTTAAACGCACGTACGCGCTGTCCCCCGCGTTTTAACCGCCAAGGGGATTACTCCCTAGTCTCCAGGCACGTGTCAGATATATACATCCTGTATAATGCATAGGGCAGTGAGTTGACGCTACAATCACGAATTCTGGATCCGATACGTAACGCGTCTGCAGCATGCG (double strand) [Linker-R nucleosome]”, in series [1] (smaller FRET change, 5' AminoC6, human octamer), the K half is 11 nM.

Regarding “human linker histone H1.0 (from UniProt P07305 1-194) (natural protein)”, the S1/2 in [5] is 13 nM; in series [6] it was 9 nM; in [7] it was 14 nM; in series [8], 14 nM; in [9], 15 nM.

With “human linker histone H1.2, 6xHis tagged (from UniProt P16403 1-213) (natural protein)”, the S1/2 in series [6] came to 6 nM.

“human linker histone H1.x, 6xHis tagged (from UniProt Q92522 1-213) (natural protein)” displayed an S1/2 in [6] of 13 nM.
